The record followed here is the RNAGym collection of RNA variant scans (doi:10.1073/pnas.2313332121).

B1: TPR 5TU (parent)
chain: GGAUCUUCUCGAUCUAACAAAAAAGACAAAUCUGCCACAAAGCUUGAGAGCAUCUUCGGAUGCAGAGGCGGCAGCCUUCGGUGGCGCGAUAGCGCCAACGUUCUCAACUAUGACACGCAAAACGCGUGCUCCGUUGAAUGGAGUUUAUCAUG

Fewer inactive variants are shown than the library holds. Bounds are passed on as bounds.

Variants of B1 are the subject of this data set. The data set can be described thus: polymerase ribozyme fitness, log enrichment relative to wild type (log ratio); higher = more active; in vitro selection for triplet polymerase activity. In a few lines:
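Fitness measures genotype enrichment against wild-type enrichment on a logarithmic scale, with inverse-variance-weighted averaging of replicates. The logarithm is base 2, and genotypes were kept only with ≥10 input reads and ≥1 read per output in Illumina sequencing. The sequenced libraries came from one triplicate in vitro selection round, including frozen incubation at −7 °C, of PCR-built, transcribed mutant libraries of each subunit of a heterodimeric triplet polymerase ribozyme.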
Consider GGAUCUUCUCGAUCUAACAAAAAAGACAAAUCUGCCACAAAGCUUGAGAGCAUCUUCGGAUGCAGAGACGGCAGCCUUCGGUGGCGAGAUAGCGCCAACGUUCUCCACUAUGACACUCAAAACGCGUGCUCCGUUGAAUGGAGUUUAUCAUG, for which the “polymerase ribozyme fitness (log ratio)” value is not above -4.2. For GGAUCUUCUCGAUCUAAUAAAAAAGACAAAUCUGCCACAAAGCUUGAGAGCAACUUCGGAUGCAGAGGCGGCAGCCUUCGGUGGCGCGAUAGCGUCAAGGUUCUCAACUAUGACACGCAAAACGCGUGCUCCGUUGAAUGGAGUUUAUCAUG, the “polymerase ribozyme fitness (log ratio)” value is -3.76.

For GGAUCUUCUCGAUCUCACUAAAAAGACAAAUCUGCCACAAAGCUUGAGAGCAUCUUCGGAUGCAGAGGCGGCGGCCUUCGGUGGCGAGAUAGCGCCAACGUUCUCAACUAUGACACGCAAAACGCGUGCUCCGUUGAAUGGAGUUUAUCAUG, the “polymerase ribozyme fitness (log ratio)” value is not above -4.2. In the case of GGAUCUUCUCGAUCUAACAAAAAAGACAAAUCUGGCACAAAGCUUGAGAGCAUCUUCGGAUGCAGAGGCGGCAGCCUUCGGUGGGGCGAUAGCGCCAACGUUCUCAACUAUGACACGCAAAACGCGUGCUCCGAUAAAUGGAGUUUAUCAUG it was not above -4.2. As for GGAUCUUCUCGAUCUAACAAAAAAGACAAAUCUGCGACAAAGCUUGAGAGCAUCUUCGGAUGCAAAGGCGGCAGCCUUCGGUAGCGCGAUAGCGCCACCGUUCUCAACUAUGACACGCAAAACGCGUGCUCCGUUGAAUGGAGUUUAUCAUG, the “polymerase ribozyme fitness (log ratio)” value was not above -4.2. In the case of GGAUCUUCUCGAUCUAACAAAAAAGACAAAUCUGCCACAAAGCUUGAGAUCAUCUUUGGAUGCAGAGGCGGCUGCCUUCGGUGGCUCGAUAGCGCCAACGUUCUCAACUAUGACACGCAAAACGCUUGCUCCGUUGAAUGGAGUUUAUCAUG it was not above -4.2; in that of GGAUCUUCUCGAUCUAACAAACAAGACAAAUCUGCCACAAAGCUUGAGAGCAACUUUGGAUGCAGAGGCGGCAGCCUUCGGUGGCGCGAUAGCGCCAACAUUCUCAACUAUGACACGCGAAACGCGUGCUCCGUUGAAUGGCGUUUAUCAUA, not above -4.2. With GGAUCUUCUCGAUCUUUCAAAAAAGACAAAUCUGCCACAAAGCUUGAUAGCAUCUUCGGAUGCAGAGGCGGCAGCCUUCGGUGGCGCGAUAGCGCCAACGUUCGCAACUAUGACACGCAAAACACGUGCUGCGUUGAAUGGAGUUUAUCAUG the figure was -4.15; with GGAUCUUCUCGAUCUAACAAAAAGGACAAAUAGGCCACAAAGCUUGAGAGCAUCUUCGGAUGCAAAGGCGGCAGCCUUCAGUGGCGCGAUAGCGCCAUCGUUCUCAACUAUGACACGCAAAACGCCUGCUCCGUUGAAUGGAGUGUCUCAUG, not above -4.2; with GGAUCUUCUCGAUCUAAGAAAAAUGACAAAUCUGCCACAAAGCUUGAGAGCAUCAUCGGAUGCAGAGGUGGCAACCUUCGGUGGCGCGAUAGCGCCAACGUUCUCAACUAUGACACGCAAAACGCGUGCUCCGUUGAAUGGAGUUUAUCAUG, -2.16. With GGAUCUUCUCGAUCUAACAAGAAGGACAAAUCUGCCACAAAGCUUGAGAGUAUCUUCGGAUGCAGAGGCGGCAGCCUUCGGUGGCGCGAUAGCGCCAACGUUCGCAACUAUGUCACGCAAAACGCGUGCUCCGUUGAAUGGAGUUUAUCAUG the figure was not above -4.2; with GGAUUUUCUCGAUCUAACAAAAAAGACAAAUCUGCCACAAAGCUUGAGAGCCUCUUCGGAUGCAGAGGCGGCAGCUUUCGGUGGCGCGAUAGAGCCAACGUUCUCAACUAUGACAUGCAAAAGGCGUGCUCCGUUGAAUGGAGUUUAUCAUG, -3.61. As to GGAUCUUCUCGAUCUAACAAAAAAGACAAAUCUGCCACAACGCUGGAGAGCAACUUCGGAUGCAGAGGCGGCAGCCUUCGGUCGCGCGAUUGUGCCAACGUUCUCAACUAUGACGCGCAAAACGCGUGCUCCGUUGAAUGGAGAUUAUCAUG, the “polymerase ribozyme fitness (log ratio)” value was not above -4.2.

As to GGAUCUUCUCGAUCUAAAAAACUAGACAAAUCUGCCCCAAAGCUUGAGAGCAUCUUCGGAUGCAGAGGCGGUAGCCUUCGGUGGCGCAAUAGCGCCAACGUUCUCAACUAUGACACGCAAAACGUGUGCUCCGUUGAAUGGAGUUGAUCAUG, the “polymerase ribozyme fitness (log ratio)” value is not above -4.2. In the case of GGAUCUUCUCGAUCUAACAAAAAAGACAAAUCUGCCACAAAGCUUGAGAGCAUCUUCGGAUGCAGAGGCGGCAGCCUCCGGUGGCGCGAUAACGCCAACGUUCUCAACUAUGACACGCAAAACGCGUGCUCCGUUGAAUGGAGUUUAUCAUG it was -3.78.

Take GGAUCUUCUCGAUCUAACAAAAAAGACAAAUCUGCCACAAAGCUUGAGAGCAUCUUCGGAUGCAGAGGCGGCAGCCUUCGGUGGCGCGAAAGCGCCAACGUUCUCCACUAUGACACGCAAUACGCGUGCUCCGUUGAAUGGAGUUUAUCAUG: the “polymerase ribozyme fitness (log ratio)” value is not above -4.2. For the variant GGAUCUUCUCGAUCUAACAAAAAAGACAAAUCUGCCACAAAGCUUGAGAGCAUCUUCGGGUGCAGAGGCGGCAGCCUUCGGUGGCGCGAUAGCGCCAACGUUCUGAACUAUGACACGCAAAACGCGUGCUCCGUUGAAUGGAGUGUAUCAUG, the “polymerase ribozyme fitness (log ratio)” value was -1.64.

For GGAUCUUCUCGAUCUAACAAAAAAGACAAAUCUGCCACAAAGCUUGAGAGCAUCAUCGGAUGCAGAGGCGGCAGCCUUCGGUGGCGCGAUAUCGCCAACGUUCUCAACUAUGACACGCAAAACUCGUGCUCCGUUGAAUGCAGUUUAUCAUG, the “polymerase ribozyme fitness (log ratio)” value is -1.14. In the case of GGAUCGUCUCGAUCUAACAAAAAAGACAAAUCUGCCACAAAGCUUGAGAGCAUCUUCGGAUGCAGAGGCGGCAGCCUUCGGUGGCGCGAUAACGCCAACGUUCUCAACUAUGACACGCAAAACGCGUGCUCCGUUGAAUGGAGUUUAUCAUG, the “polymerase ribozyme fitness (log ratio)” value is -2.59.
